Experimental data: the DeepSol protein solubility set

experiment: soluble on expression in E. coli; label from the status in PepcDB or PDB records

Sequence	soluble on expression in E. coli
MMKYTAVLDKPVTGNETTGSLPEPLLREALGAALRAFRADKGITLRELAETSRVSPGYLSELERGRKEVSSELLASVCHALGTSVSDVLIEAAGTMAMRSAEADLVRVS	not soluble
MPASVTHVIFDFDGLLVDTESAYTEANMELLRKYGHVFTMDLKRRQMGKRHDESIRWLINELKIGDLVTPEEYSRQYDELLIEMFKRSPAMPGAEKLVRHLLHTGVPVALCTGSCSRTFPTKLDNHKDWVNMIKLQVLSGDDPEVKHGKPHPDPFLVTMKRFPQVPESADKVLVFEDSYNGVLSALDAGMQCVMVPERSIFDPDSDPEFKNRVTVILNSLEQFKPEDFGLPPY	not soluble
MEQNGFHTLSLFLNPKVLRPLLTQAVTQLPKYFLGQSSTPPSTSFEGRYKPSFLERAAFSTNPFDNTGSDTQQKLSPTELIRGSYGEGREAGKKTPAELIMSTDDLKRQMPSLPDALKDTIRIQEVPKQEKSDFSEQGGVASMIPQSPFVSNIDKVSGDEAGRQQKDVMDYITEFNNRSMPEEQRGSSPVNEETLSHTPISEEEHLKANDMPEQATDYVNAVGNFIHKDANPSNLWERFRKSEFSEHLMDFFAGLASGKTPQESFSNAALVMRQGNNTRLQNRPIFAFLRSKGYDDKDAQAIMQYPDLAMKVIGSTLSPQEDYRTLTAEEKAKQGLPEDMAFQISTSTGKIIPVQGGQRSTASGLGGNTDSMLSKPESGYMLVKDKNAPHGIRAMPIAGSGAEHKLIQEQKEEERKEQQAKMQILESADRSNRIISTSKELLKIVDEHPHVAGFLGYWGSFIPGFKAKDFGHMLDSLKASIGLDALTKAKAFSPNGASGFGNLSNMELQALQNSVAALYQDLTAEQLKKSLTTIIDTFNKSNAATRAILFGGAEATRELVRAAYGEDAYKKNNTQSDVSLEKQIEALPEGILFIDSDGRIKEKQTNG	not soluble
MTDKWLDTINWSADGLIPAIAQDKNNGKILMVAWMNREALKRTVESGEAVYWSRSRKKLWHKGEESGHTQKISAIHLDCDEDILLLSVEQKGGIACHTGRQSCFFRQLKNGEWVVTEPVIKDPSQIYTK	not soluble
MGSDKIHHHHHHMRTALLEVGLEELPASEFHSILKQLEEKSAELLKAYRVSSGSVEVFVGSRRFGVILKNLPERQEDFTEEKKGPPLNVAYDENGKPTRALEGFLRNNNASLENVVHREGYVYLSRVVEGKPVEEVLPDLFRDLVLGLNFRKPMRWGSGEHEYIRPVHWIVAMVDGRVLDLEIFGLRSSRISYGKRYHAGSIEIPDSERYYESLKKGFVISSHLERKKFVLEQIDEFEKRSSMKIERDEELIEEIVAITEYPRIVVGQFDRKYLELPEEIIVTAVKHHQRSFIAHKGTLTNTFVAFQDGPQPPENVVKGYERVINARLEDARYYFQKDLETPLEKMNEKLKEIVFQEKLGTLYDKVERIKKISQRLCEDLKLPGSFTQKVLEAASICKADIASKVVYEFPELQGVMGRIYALREGINEEIATAIEDHYSEEPQTVIGSILGIADRIDTIVGNFAIGNVPTSSKDPYGLKSKADTIFRIIRKNEWDISLEELLTFASSLVGYRLSEELETFFAGRFYQFLINELGISFDVARAVNHLWKKPLRGILSAEALQEISEKPEFQDLFVGFERVHNITKNHDSTKFDGALFEKEEEKKLMNKFYEVKEKVLKALERLNYREALQYLIELKPYIDEYFDNVFVMVKRDDLRVNRLSFLKNIDELFMMVGDMTYLVKRSQV	not soluble
MKRLAVILITLALVSSMCITNSNEKRENMKNAKVLMVIAPKDFRDEELFEPMAVFESNGLKVDVVSTTKGECVGMLGNKITVEKTIYDVNPDDYVAIVIVGGIGSKEYLWNNTKLIELVKEFYNKNKVVSAICLSPVVLARAGILKGKKATVYPAPEAIEELKKAGAIYEDRGVVVDGNVITAKSPDYARLFGLEVLKAIEKNNE	soluble
MSKSSYYAPHGGHPAQTELLTDRAMFTEAYAVIPKGVMRDIVTSHLPFWDNMRMWVIARPLSGFAETFSQYIVELAPNGGSDKPEQDPNAEAVLFVVEGELSLTLQGQVHAMQPGGYAFIPPGADYKVRNTTGQHTRFHWIRKHYQKVDGVPLPEAFVTNEQDIQPLVMPDTEGRWSTTRFVDMSDMRHDMHVNIVNFEPGGVIPFAETHVMEHGLYVLEGKAVYRLNQDWVEVEAGDFMWLRAFCPQACYSGGPGRFRYLLYKDVNRHMRLTLNAPHLEHHHHHH	soluble
MTTETQADRTQQAVGRIIGSIGVVTTQTTGRHQGILTSWVSQASFTPPGIMLAIPGEFDAYGLAGQNKAFVLNLLQEGRSVRRHFDHQPLPKDGDNPFSRLEHYSTQNGCLILAEALAYLECLVQSWSNIGDHVLVYATVQAGQVLQPNGITAIRHRKSGGQYLEHHHHHH	not soluble
MGSDKIHHHHHHMKKIGLTTTVPIEVLLSAGYTPIDLNNIFVGSKDYSKYIDIAEKDGFPKSLCAWIKGIYGACISNDIKEIVGVHDGDCSNTKALTEVLSMKGIKVYPFSYPSSHNINDVKDELDAFMNLFHVTLNQVEKIRTRLNKLRELGIEIDKLTFEDNKATALENHIWQISFSDLNGDIDAFNSDLIKTIADIKKREASSSKLRLGYIGVPPMTPDIYEFVTNFDAKIVYNEVQREFAFPRSSKAKDIYEQYFDYTYPYDVYFRIDEISRQIEERHIDGIIHYTQAFCYRAVQDIVIKEKLRVPVINIEGDRLNHLDARTKLRLEAFLDMLLDSKEGIF	not soluble
MSLAMQDFRPGVYRHYKGDHYLALGLARADETDEVVVVYTRLYARAGLPMSTRLLRIWNETVDTGAGPQPRFAYVGHVTPEQGEGHHHHHH	soluble
MIDDLLNFFNSFNVVKNYKLINQLKNEVDTLKSRLDIPRELLDGFYADRNSREYREVYEKDAPLVTVCIGTYNRGKLLVERSVRSVLEQSYGNIELIVVGDCCTDDTPRLVQGITDPRFRFINLPERGNYPENPLHRWCVAGTVPFNYALSQARGDFITHLDDDDEFVPDRIEKLVKFIQREKADLVWHPFWYERSNGRWAMRKAQEFSGGKVTTSSIFYHRWFTAVPWDIEAYRYQEPGDWNRLRKIKYLGARVARYPEPLLRHYCERNQESLSSRTIQTRNTKLEHHHHHH	not soluble
MGSDKIHHHHHHMYEDYYRFSAKPFQLNPDPRFFYGSKGHKRAMAYLDYGLSLGEGFIVITGEVGAGKTTLVRNLFRQLEAHNLVAAQLVSTQLDAEDTLRSVAASFGLEHEGLTKSALLKNLESFLAAAARQGKRALLVVDEAQNLTPRAVEELRMLSNFQNDERSLIQTFLLGQPEFRGILQSPDMQQLRQRVVASYHLGPLDADETRGYIEHRLRTVGWQGMPGFDDDAFAALHRFSGGIPRRLNTTCDRLLLFGFLEEKRHFGEAEVDEVIADLRSEVAHQDFDRGAKPDARAADAFYAEDGGRLAQRIEQLERSVNRILPIVRKILYTVSEREAANDDTPQGPHDPAR	not soluble
SLSKKATYPKVMCTQHPDSASKYISTQEEPGEAIEAAVVFGCDEYMPDYEGKATPYHQNVQIVSRFIEETDLIPGKDIFITPRAPSAAQENRFRQLMVMMSIAEANHGALEYSDVQAINEFVHPMTGTVGEILDAQQHMVDVGELAKKEFGVAMEVPRIIPLIEDAPALLHAKELAENTLLSWEKRFGAAPEKFRVFLGKSDSALSFGHVASTLSCKYAISGISELDLELDTSTGIIFGAGTLPFRGHLSLKNAENFFREYRGIGTITLQSAVRYSHDKGEAEALVRLAEERLPESPEIYSGEEKEEIVNLIGIFGARYNRIIREMSCTINQLAGLLPQQRDRLMHKGTGGYSRNVPDISGLVCLCRKDVGKELSASMPAEDLNLPRAIKFTGALYSIGLPPEFIGTGTALEEAREKLGEEACERLLKKYFPSLASDLSFASGYLDLNVASRFLPEACLKEIRKDIEVLRDTFSLKVQPEPSYRILLEMMQPDLLQAGTKGNCMDEEVSQLVCSTLTKMGKIRKALG	not soluble
MDIHVLSYGLGNQLSQYAFFINRRQLMQRAYAFYAFKQHNGYELDRIFGLKEGLPWYLQFVRVVFRLGISRRFYSKRTADFVLSLFRIKVIDEAYNYEFDPSLLKPWFGIRILYGGWHDSRYFHPSEAAVRTAFSFPPLDDVNDAILQQIDAVYGVSIHVRRGDYLKGINSNLFGGIATLEYYRNAIGWAITYCKHRSLEIKFYVFSDDIDWCKQNLGLRDAVYVSGNSKTDSWKDILLMSHCRANIIANSTFSWWAAWLNQQPNKVVICPTKFINTDSPNQTIYPAAWHQIEGLEHHHHHH	not soluble
MQTFGSRGEKRTFEMLTNEVEYQHYRFSFANNPATAAGIFQLAEIELTVVADAPLVDFASNISRAEIGENVQFWDRSLANPTGWQWTFEDGEPATSTNRNPAVTFTSLGAKSVTLVASNDKGSNEKVQEQVVHIWDSQNPWAGYVKPTVTLVAHKPEHEGQIAFSRVMPDIEAVIHDISLQIVKVLYKDVAEAPLFKTVTFETDEYDFPAAKSGTDEDMILMMDVAHLANKAAEGDDALRDEVIGMLWHELTHGYNNSPNSGEYATGDEYHSYLESLANYMRIKAGFHESRRVGIKWVDNWNVDAYEQTSFFLEWVANSHRSVDFIYLFNKAAGDLKEWSFEAAFKSIFGEDKGVSIFWQEYHDAQGIEPPYPTPVDGYRNFAVDEGVSISTNATTVIIPDWDAYEGEDKLIDNNVTKKFNAFIEGTWWLEEHASHLFPINDITNVEVTFELPDAIVLHKYSVTTGNDNPQRDPTLWTISGSVDGEVWTQLDSDNYPSDPERLITFHYDIDDAVTAYKYYQFVFENTQPAGDSIGGDNGRLVQIGEIALLTEELEHHHHHH	soluble
MVCFGVGSGGTVTGVGRYLRAQKQNIGVYPVEPFESSVLSGFPRGPHKIHGIGAGLIPGNVDRSLFTEVLRVKSEDAMKMARRLADEEAILGEISSGANVVAAVELACRPENIGKLIVTTVNSFAERYFSTELYSTLLSEVSKLPISTDEQAVDIAKKYLGL	not soluble
GMIRVMATGVFDILHLGHIHYLKESKKLGDELVVVVARDSTARNNGKIPIFDENSRLALISELKVVDRAILGHEGDMMKTVIEVKPDIITLGYDQKFDEAELQSKINKLGITVKIVRISKYDGQLNSSSSVRKKIMELIGERY	soluble
MPTLIVLIGPTGVGKTELSLRLAENFHTSIVSADSRQLYAELKIGTAAPTPDQLKRVPHYLVGTLHLTDYYSAAQYEQEAMEILHQLFTEHEVVVLTGGSMMYVDAICKGIDDIPTVDAETRQVMLQKYEEEGLEQLCAELRLLDPDYYRIVDLKNPKRVIHALEICYMTGKTYTSFRTQQKKERPFRILKIGLTRDREELYDRINRRVDQMMEEGLLDEVRSVLSYRHLNSLNTVGYKELFKYLDGEWELPFAIEKIKQNSRIYSRKQMTWFKRDEEIRWFHPEQETEILEYLRLQNLTHLPSLDTFLEHHHHHH	soluble
MGSDKIHHHHHHMIHWLKVPNNPELAKYIACYWFLEKLPNAEGHNDYPKLNPDPASHLILALPQQNFRYKSDNGVTQMDGCHWLHPHGKTYELDHAKAVACIGIKFHVGALYSLPTFMDLQEQTPQAVVDTVEAISFENINFAQSNFDDHKLSDNNQLNEHDLVILARNSPDDCAEMLDKLCLPWLLKNHEDNHSELTRKVLPLLAKAAINSLGDTLFCSQRTLERSFLKVSGVTLKQCQSMNRLEAILEFLYQREQSDIDWVDIAYQFGFSDQPHLIRYLKKQLGLTPQDYALQRGFTIDVYGGVDSL	not soluble
MSLKTWFITGTSSGFGKELATIVARQSDTQLIAAARHTDDLAYLDVFDATRIEKVSIDVTNESQIKTGVAQAIQRFGTIDVLVNNAGLGYFSTIEESDMAKVRYMFEVNVMGLANVTRTVLPTMRAHHAGIIINLSSALALTTLPTMGFYSATKYAVEGYSDTLRQEVKDLGIQIMTVEPSGARTQWSGRSSQKMVPTIADYAAFSDAITTVSDSVTQAPGNPHRIAQVMFDQANLAEVPAHLPLGEFAYQGGLANLQSIVSEIKSREDLSLSTDEGHHHHHH	not soluble
